For one assay, the system named is HT-1080 cells. The assay is described as follows: Plasmin release from plasmin-loaded HT-1080 cells. The class given is cell-based, human. As to conditions: 1 mM tranexamic acid added to the serum-containing medium. How it is done: FIG. 24. Plasmin release from HT-1080 cells into serum-free and serum-containing media. Confluent layers of HT-1080 cells were first loaded with plasmin by incubation for 1 hour at 37° C. in serum-free MEM medium (0.5 ml) containing human plasmin (0-5 μg/ml). After rinsing the cell layers three times, they were incubated for 2 hours at 37° C. with either serum-free medium (∘ - - - ∘), medium containing 10% heat-inactivated and plasminogen-depleted fetal calf serum (● - - - ●), or the latter with tranexamic acid (100 μM) (▪ - - - ▪). Plasmin was then assayed in the cell-bound fraction (A) and the media (B). At the time of transfer to new media, there was approximately 28 ng of plasmin bound to the cells from the pretreatment with 2.5 μg of plasmin/well.
In the Examples concerning plasmin binding to cells from medium, human plasmin (approximately 18 CU/mg; Kabi Diagnostica, Stockholm, Sweden) was added to the cultures at final concentrations of 0-5 μg/ml. The cells were incubated for 3 hours at 37° C. before assay of cell-bound and supernatant plasmin (see below). For plasmin release experiments, cells were loaded for 1 hour at 37° C. with 0-5 μg/ml plasmin in serum-free medium, then rinsed three times with MEM.
Plasmin bound to the cell layer was recovered and assayed as follows. After harvest of culture medium, the cells were rinsed three times with PBS (plasmin assays of further rinses were negative); then the bound plasmin was specifically eluted (Miles, L. A., and E. F. Plow, “Binding and activation of plasminogen on the platelet surface”, J. Biol. Chem. 260: 4303-4311, 1985) with a solution of 1 mM tranexamic acid in the same rinsing solution (150 μl/well). Plasmin activity was assayed in eluate samples (50 μl) as above with an incubation time of 3 hours at 37° C. Tranexamic acid at 1 mM had no effect on the thioesterase activity of plasmin in these assays.

For the next assay, the system named is cultured cells. The following applies: plasminogen, cultured cells; cited from earlier work.
Another assay has as its target thrombospondin (Homo sapiens, UniProt P07996). The following applies: purified thrombospondin; cited from earlier work.
The target of another assay is uPAR-bound u-PA (Homo sapiens, UniProt P00749). In kind it is cell-based. The procedure:
U937 cells were grown in suspension in RPMI 1640 medium supplemented with 5% heat-inactivated fetal calf serum. PMA-stimulation of U937 cells was performed at a cell density of […] cells/ml with 150 nM PMA for 4 days. The adherent cell population was harvested with a rubber scraper and resuspended in PBS. […] The effect of PAI's on the activity of cell-bound u-PA was determined by the addition of varying concentrations of PAI-1 (0.18-18.4 nM) or PAI-2 (1.13-56.7 nM) to the incubations at the same time as the addition of plasminogen. Curves were then constructed of plasmin concentration against time. […] [pln]∞ was calculated from the relationship: [[…]]0) equation.2 where Δ[pln]0 is the initial rate of plasmin generation which was determined in control incubations in the absence of inhibitors. […] Association rate constants (second-order rate constants) were calculated from the slope of the line of double reciprocal plots of kapp against inhibitor concentration.

Another assay deals with u-PA (Homo sapiens, UniProt P00749). Put plainly: Inhibition of u-PA in solution by PAI's (association rate constants). In kind it is biochemical. The source says: Plasminogen was purified from fresh human plasma as previously described (Danø and Reich, 1979), and was further separated into its two isoforms by elution from lysine-Sepharose with a linear gradient of 6-amino-hexanoic acid. Plasminogen isoform 2 was used in all experiments described here. u-PA (Mr 55,000) was obtained either by plasmin activation of pro-uPA (Ellis et al., 1987) or as Ukidan (Serono). Both preparations were greater than 95% high molecular weight u-PA by SDS-polyacrylamide gel electrophoresis. The concentration of active u-PA in these preparations was determined by active-site titration with p-nitrophenyl-p-guanidinobenzoate (Sigma Chem. Co.). DFP-inactivated u-PA was prepared as described in Example 1. […] The concentrations of active inhibitor in the various PAI preparations were determined by titration against u-PA immediately before use in the kinetic experiments. […] Residual u-PA activity was then measured by hydrolysis of 0.2 mM Glu-Gly-Arg-AMC (Bachem, Switzerland).
The effect of PAI's on the activity of cell-bound u-PA was determined by the addition of varying concentrations of PAI-1 (0.18-18.4 nM) or PAI-2 (1.13-56.7 nM) to the incubations at the same time as the addition of plasminogen. […]
[pln]∞ was calculated from the relationship: […]
where Δ[pln]0 is the initial rate of plasmin generation which was determined in control incubations in the absence of inhibitors. […]

Read-outs that look alike come from different tables or passages of the source.

thrombospondin, sequence (P07996 19-1170): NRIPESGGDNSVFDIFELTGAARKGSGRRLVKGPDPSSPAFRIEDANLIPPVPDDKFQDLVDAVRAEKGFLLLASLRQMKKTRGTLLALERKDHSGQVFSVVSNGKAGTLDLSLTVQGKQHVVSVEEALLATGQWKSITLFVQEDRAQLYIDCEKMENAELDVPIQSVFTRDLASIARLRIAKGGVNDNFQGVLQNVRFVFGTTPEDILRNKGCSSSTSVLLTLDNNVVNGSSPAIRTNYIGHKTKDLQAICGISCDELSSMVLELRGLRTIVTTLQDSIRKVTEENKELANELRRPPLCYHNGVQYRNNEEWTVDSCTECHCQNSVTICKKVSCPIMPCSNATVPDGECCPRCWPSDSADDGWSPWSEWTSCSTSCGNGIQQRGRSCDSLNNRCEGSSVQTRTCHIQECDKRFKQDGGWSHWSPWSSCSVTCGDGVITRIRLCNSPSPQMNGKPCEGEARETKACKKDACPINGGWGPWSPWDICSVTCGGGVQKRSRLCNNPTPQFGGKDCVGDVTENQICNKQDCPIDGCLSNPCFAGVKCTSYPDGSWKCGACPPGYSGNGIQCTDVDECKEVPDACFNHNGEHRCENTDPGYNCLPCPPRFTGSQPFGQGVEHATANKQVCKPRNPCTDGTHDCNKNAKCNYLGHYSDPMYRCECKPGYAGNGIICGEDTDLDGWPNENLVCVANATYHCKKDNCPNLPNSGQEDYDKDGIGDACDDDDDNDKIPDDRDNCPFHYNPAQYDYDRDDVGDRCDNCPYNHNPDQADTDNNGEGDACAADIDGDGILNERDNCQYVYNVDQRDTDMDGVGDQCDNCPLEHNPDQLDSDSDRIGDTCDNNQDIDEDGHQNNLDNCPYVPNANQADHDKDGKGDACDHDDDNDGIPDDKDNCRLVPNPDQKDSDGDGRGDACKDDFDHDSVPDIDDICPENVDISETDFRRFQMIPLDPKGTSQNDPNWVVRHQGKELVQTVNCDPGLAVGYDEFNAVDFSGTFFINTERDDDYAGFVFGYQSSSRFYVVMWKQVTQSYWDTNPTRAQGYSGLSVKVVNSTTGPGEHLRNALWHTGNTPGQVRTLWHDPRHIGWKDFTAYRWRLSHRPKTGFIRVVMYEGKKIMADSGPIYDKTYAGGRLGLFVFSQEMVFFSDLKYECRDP

Consider `NC[C@H]1CC[C@H](C(=O)O)CC1` [TA, tranexamic acid], for which the “Plasmin activity recovered from the cells” value in the assay with HT-1080 cells is “no plasmin activity could be recovered from the cells”.

With “Plg: native human plasminogen (glutamic acid N-terminal) purified from human plasma on lysine-Sepharose”, the Kd in the assay on cultured cells is 1 µM; with thrombospondin, 0.035 µM.

B1: PAI-2: human type-2 plasminogen activator inhibitor purified from U937 cells (protein, UniProt P05120 1-415, looked up)
Plasminogen activator …: MEDLCVANTLFALNLFKHLAKASPTQNLFLSPWSISSTMAMVYMGSRGSTEDQMAKVLQFNEVGANAVTPMTPENFTSCGFMQQIQKGSYPDAILQAQAADKIHSSFRSLSSAINASTGNYLLESVNKLFGEKSASFREEYIRLCQKYYSSEPQAVDFLECAEEARKKINSWVKTQTKGKIPNLLPEGSVDGDTRMVLVNAVYFKGKWKTPFEKKLNGLYPFRVNSAQRTPVQMMYLREKLNIGYIEDLKAQILELPYAGDVSMFLLLPDEIADVSTGLELLESEITYDKLNKWTSKDKMAEDEVEVYIPQFKLEEHYELRSILRSMGMEDAFNKGRANFSGMSERNDLFLSEVFHQAMVDVNEEGTEAAAGTGGVMTGRTGHGGPQFVADHPFLFLIMHKITNCILFFGRFSSP
In the case of B1, in the assay with uPAR-bound u-PA (U937 cells), the “Rate of inhibition of cell-bound u-PA relative to u-PA in solution” value was “approximately 60%”. The Association rate constant in the assay with uPAR-bound u-PA (u-PA bound to uPAR on PMA-stimulated U937 cells) was found to be 110000 M⁻¹ s⁻¹; with uPAR-bound u-PA (u-PA bound to uPAR on U937 cells), 330000 M⁻¹ s⁻¹; with u-PA (direct assay with u-PA specific fluorogenic peptide substrate), 520000 M⁻¹ s⁻¹; with u-PA (plasminogen activation assay), 530000 M⁻¹ s⁻¹.

Source of the values: patent US20030027981A1, “Urokinase-type plasminogen activator receptor” (priority 1989, published 2003).
